Reference: PMC8424379 (2021)

B1: full-length Ccq1 fused to Gal4 activation domain [S. pombe] / Clr3 fused to the Gal4 DNA binding domain [S. pombe] (parent complex)
chain 1: MSEINDFTNSIIINESDTKYEVYSEVNSSNRWIAKEDCPSPLEDVWLLKLAGHKRKLEEPLSCMRNEEPASKQREIEKFLRTDLDHSENDFLTQEVDEFPSTQQLFPIPLQNDTAFDSSEESITKSSKSSFSVLDIGLPMSALQRKMMHRLVQYFAFCIDHFCTGPSDSRIQEKIRLFIQSAHNIAKHPSLYDTEVRNPSAAESTNSHVSLDASNFSSYAENSSKFLFLQELFKNLSPSYSKTFFLFISNQFLANTLTQWLKSQNIDAELWAEEDAKTSQHPAIWICVSKKAPSASHFLQSCPDLSATIFYDIEAYMSVTSSLPSIQSLVLRLIHLGSIEHAIKCFQSSYNASFLVNIVGVVATLSSSSEENSEASNLSTLFEKSGNFEEILGSESHSSITEKTRDIAKNVATWLKNGENFSSWPLPPLMDLASLSVAEPRDSQPSVSQVNDTFVKSSDSTFPSSQSMQSPSKLHSLTSNATDLLSSSSLKKNFFSQQEADEVELSNNYDLQGAAVQYLQRRLRMVEDELHEAINSKNVQQSRSEELEQQISKLTDNLQEYRNTVRELKLDLEKSKKKNEDLSKLEVEKVEEIANLKKELTHLAKQQEFGFKYVQEFSNEDLQGKLIEANEKNYKLTQLLKTQKEDADFITNQYQNASTFAAEQSKEVAKLQAECKRLQAINSKVMEEVKVYNDSRVEALLAKVSSLEETLKILEQKSLPKFTPHNQSPRIIDSN
chain 2: MLASNSDGASTSVKPSDDAVNTVTPWSILLTNNKPMSGSENTLNNESHEMSQILKKSGLCYDPRMRFHATLSEVDDHPEDPRRVLRVFEAIKKAGYVSNVPSPSDVFLRIPAREATLEELLQVHSQEMYDRVTNTEKMSHEDLANLEKISDSLYYNNESAFCARLACGSAIETCTAVVTGQVKNAFAVVRPPGHHAEPHKPGGFCLFNNVSVTARSMLQRFPDKIKRVLIVDWDIHHGNGTQMAFYDDPNVLYVSLHRYENGRFYPGTNYGCAENCGEGPGLGRTVNIPWSCAGMGDGDYIYAFQRVVMPVAYEFDPDLVIVSCGFDAAAGDHIGQFLLTPAAYAHMTQMLMGLADGKVFISLEGGYNLDSISTSALAVAQSLLGIPPGRLHTTYACPQAVATINHVTKIQSQYWRCMRPKHFDANPKDAHVDRLHDVIRTYQAKKLFEDWKITNMPILRDSVSNVFNNQVLCSSNFFQKDNLLVIVHESPRVLGNGTSETNVLNLNDSLLVDPVSLYVEWAMQQDWGLIDINIPEVVTDGENAPVDILSEVKELCLYVWDNYVELSISKNIFFIGGGKAVHGLVNLASSRNVSDRVKCMVNFLGTEPLVGLKTASEEDLPTWYYRHSLVFVSSSNECWKKAKRAKRRYGRLMQSEHTETSDMMEQHYRAVTQYLLHLLQKARPTSQ
B2: Ccq1_(496–583), Raf2-binding motif of Ccq1, fused to Gal4 activation domain [S. pombe] / Raf2 fused to Gal4 DNA-binding domain [S. pombe] (parent complex)
chain 1: SQQEADEVELSNNYDLQGAAVQYLQRRLRMVEDELHEAINSKNVQQSRSEELEQQISKLTDNLQEYRNTVRELKLDLEKSKKKNEDLS
chain 2: MPPVRAEKKRKTDLIEQVCVTNKAGELVDLEDVLEYGPYSLTGILSSEKDEQEPLFDESIVLGYSIKISPVWTYNLKDVPEKETMSIWIVTPQRRYGILSPSSEYKAIYEQISEKNRLFYLIKTKFKDDMISGTLEDYDNYIEVLKEKLELPSCFQAILLVQKHIRFLLTQMVATSSLHVWSESPFFIRIRSSYEHLILQINKNIYNARQERKKSKLSSNNPSDNNTTMKSSLNQALTLINLPEQPFSISSPTATPQLGVVKRTSPLRFPLNDIWLSGLRIVDPNIESISLWKRIQVSTSPKHQRYISLQEVCSVIAQQLQITNLEALNKLSSHGETLLQIMHTAFTWRGTKLFNDIKHAIGFRSSVQQARSQFRGYCYDYLFMHCNNGEKTSLHLLRTLICMKLDFSNAQLAAKILFHFLLFDIGSGLSGSDYTYEQYINHSAVAFSFTEEIFEKNFVTVLPDFVKLFSISFGYWPAFSFYDELLKLLRNKYPKVYSSTPNLCDQVWLDRTNLFPCNRSTRSTLPYRPTKLLDLASASSCLSKKETDFKQDTGLYSYNLEKVEALKVSPDLQTGIWSCPVQNCLYFAVCDNPYKPSQVIYDHLLGHVDSKFIFKTPSNSVRSFTNKLEHIMYNIN
B3: full-length Ccq1 fused to Gal4 activation domain [S. pombe] / Tpz1 fused to the Gal4 DNA binding domain [S. pombe] (parent complex)
chain 1: B1 chain 1
chain 2: MSNCLKHPWLENGLLNLIKNADVLPIRVFKCQPLQIFEYIRYEHPIRCKLSDTEFYIEAEFSSQSISDLNNFTEKRITSLRGGIVTLGNFLIHLIPSQSGIIPWIQVESFNFQGCEGAVFGNPKAITTSALFNALLQSPYLAALANEFNRSIKEGSSYQEASLSQQEKPNDNTSNSRDIKNNIQFHWKNMTSLSIEECIIPKGQQLILEKESEENTTHGIYLEERKMAQGLHNSVSETPEVKQEDNDEDLDAYSWSSSTDSAGEIPSLPTNRKILEKIAEKPPPFESPLEDDETPDQTNEHEANQVNVSQLPLNPRGSGISGRPVESTEQLNSSLTIERSQSIQSTDSKQRVETQSHRRSKIEIFDAQDELFDRSICTTIDDSTGKLLNAEETPIKTGDLHSTSASSVISCTPPAINFTSDICNEQIELEYKRKPIPDYDFMKGLETTLQELYVEHQSKKRRLELFQLTNNHQKNSEACEMCRLGLPHGSFFELLRDWKKIEEFRNKS
B4: full-length Ccq1 fused to Gal4 activation domain [S. pombe] / Raf2 fused to Gal4 DNA-binding domain [S. pombe] (parent complex)
chain 1: B1 chain 1
chain 2: B2 chain 2

Variants of: B1
Assay: yeast two-hybrid (β-galactosidase); Clr3 fused to the Gal4 DNA binding domain; Ccq1 fused to Gal4 activation domain; parent: 97; read off a plot

| Variant | response |
| --- | --- |
| chain 1 L511R | ~88 |
| chain 1 L519R | ~89 |
| chain 1 L523R | ~94 |
| chain 1 V516R | ~82 |
| chain 1 Y518R | ~80 |

Variants of: B2
Assay: yeast two-hybrid (β-galactosidase); Raf2 fused to Gal4 DNA-binding domain; Ccq1 fused to Gal4 activation domain; read off a plot

| Variant | response |
| --- | --- |
| chain 1 SQQEADEVELSNNYDLQGAAVQYLQRRLRMVEDELREAINSKNVQQSRSEELEQQISKLTDNLQEYRNTVRELKLDLEKSKKKNEDLS [chain 1 H36R] | ~94 |
| chain 1 SQQEADEVELSNNYDLQGAARQYLQRRLRMVEDELHEAINSKNVQQSRSEELEQQISKLTDNLQEYRNTVRELKLDLEKSKKKNEDLS [chain 1 V21R] | ~2.8 |
| chain 1 SQQEADEVELSNNYDRQGAAVQYLQRRLRMVEDELHEAINSKNVQQSRSEELEQQISKLTDNLQEYRNTVRELKLDLEKSKKKNEDLS [chain 1 L16R] | ~3 |
| chain 1 SQQEADEVELSNNYDLQGAAVQYLQRRLRMVEDELHEARNSKNVQQSRSEELEQQISKLTDNLQEYRNTVRELKLDLEKSKKKNEDLS [chain 1 I39R] | ~90 |
| chain 1 SQQEADEVELSNNYDLQGAAVQYLQRRLRMVEDERHEAINSKNVQQSRSEELEQQISKLTDNLQEYRNTVRELKLDLEKSKKKNEDLS [chain 1 L35R] | ~74 |
| chain 1 SQQEADERELSNNYDLQGAAVQYLQRRLRMVEDELHEAINSKNVQQSRSEELEQQISKLTDNLQEYRNTVRELKLDLEKSKKKNEDLS [chain 1 V8R] | ~82 |
| chain 1 SQQEADEVERSNNYDLQGAAVQYLQRRLRMVEDELHEAINSKNVQQSRSEELEQQISKLTDNLQEYRNTVRELKLDLEKSKKKNEDLS [chain 1 L10R] | ~87 |
| chain 1 SQQEADEVELSNNYDLQGAAVQYLQRRLRMVEDELHEAINSKNVQQSRSEEREQQISKLTDNLQEYRNTVRELKLDLEKSKKKNEDLS [chain 1 L52R] | ~63 |
| chain 1 SQQEADEVELSNNYDLQGAAVQYRQRRLRMVEDELHEAINSKNVQQSRSEELEQQISKLTDNLQEYRNTVRELKLDLEKSKKKNEDLS [chain 1 L24R] | ~2.5 |
| chain 1 SQQEADEVELSNNYDLQGAAVQYLQRRLRMVEDELHEAINSKNVQQSRSEELEQQISKLTDNLQERRNTVRELKLDLEKSKKKNEDLS [chain 1 Y66R] | ~79 |
| chain 1 SQQEADEVELSNNYDLQGAAVQYLQRRLRMREDELHEAINSKNVQQSRSEELEQQISKLTDNLQEYRNTVRELKLDLEKSKKKNEDLS [chain 1 V31R] | ~80 |
| chain 1 SQQEADEVELSNNRDLQGAAVQYLQRRLRMVEDELHEAINSKNVQQSRSEELEQQISKLTDNLQEYRNTVRELKLDLEKSKKKNEDLS [chain 1 Y14R] | ~88 |
| chain 1 SQQEADEVELSNNYDLQGAAVQYLQRRRRMVEDELHEAINSKNVQQSRSEELEQQISKLTDNLQEYRNTVRELKLDLEKSKKKNEDLS [chain 1 L28R] | ~3 |
| chain 1 SQQEADEVELSNNYDLQGAAVQYLQRRLRMVEDELHEAINSKNRQQSRSEELEQQISKLTDNLQEYRNTVRELKLDLEKSKKKNEDLS [chain 1 V44R] | ~81 |
| chain 1 SQQEADEVELSNNYDLQGAAVQRLQRRLRMVEDELHEAINSKNVQQSRSEELEQQISKLTDNLQEYRNTVRELKLDLEKSKKKNEDLS [chain 1 Y23R] | ~3 |
| chain 1 SQQEADEVELSNNYDLQGAAVQYLQRRLRMVEDELHEAINSKNVQQSRSEELEQQISKLTDNRQEYRNTVRELKLDLEKSKKKNEDLS [chain 1 L63R] | ~85 |
| chain 1 SQQEADEVELSNNYDLQGAAVQYLQRRLRRVEDELHEAINSKNVQQSRSEELEQQISKLTDNLQEYRNTVRELKLDLEKSKKKNEDLS [chain 1 M30R] | ~92 |

Variants of: B3
Assay: yeast two-hybrid (β-galactosidase); Tpz1 fused to the Gal4 DNA binding domain; Ccq1 fused to Gal4 activation domain; parent: 94; read off a plot

| Variant | response |
| --- | --- |
| chain 1 L523R | ~90 |
| chain 1 Y518R | ~91 |
| chain 1 V516R | ~81 |
| chain 1 L519R | ~83 |
| chain 1 L511R | ~95 |

Variants of: B4
Assay: yeast two-hybrid (β-galactosidase); Raf2 fused to Gal4 DNA-binding domain; Ccq1 fused to Gal4 activation domain; parent: 97; read off a plot

| Variant | response |
| --- | --- |
| chain 1 L523R | ~51 |
| chain 1 M525R | ~110 |
| chain 1 V526R | ~110 |
| chain 1 L519R | ~4.8 |
| chain 1 V516R | ~3.8 |
| chain 1 L511R | ~3.8 |
| chain 1 Y518R | ~4.5 |
